Our source for the Km and kcat values is publication PMC5585873.

The test system of one data set is CCCCCCOS(=O)(=O)O. Description: purified protein. The note with it: 10 mM tris-HCl, pH 7.4, 25 °C, 0.16 μM enzyme.
Substrate in data set [1]: CCCCCCOS(=O)(=O)O
Description: LC-MS of substrate depletion, hyperbolic fit. The format is biochemical, Saccharomyces cerevisiae. The note with it: 10 mM tris-HCl, pH 7.4, 25 °C, 1.0 μM enzyme.

The term Km denotes the substrate concentration at which the rate is half of its maximum. As usually defined, the kcat is the number of substrate molecules converted per active site and unit of time at saturation. On to SdsA1 (Pseudomonas aeruginosa PAO1), for which, in the data set with CCCCCCOS(=O)(=O)O, the Michaelis-Menten constant (Km) was 110 ± 17 µM and the kcat was found to be 1.07 ± 0.45 s⁻¹.

B1: Bds1 (Saccharomyces cerevisiae S288C) (protein)
chain: MIGAFKRNRGSSQSFAKECQPSTLKANLEVAKELPFSDRRDFEDATQGYIGSLSDEQIIGPDGGVVWCMKSYGFLEPETPANTVNPSLWRQAQLNAIHGLFKITDNVYQVRGLDISNMTIIEGNTSLIIIDTLFTTETAQESLKLYYRHRPQKPVRTVIYTHSHSDHYGGVKGIVKEADVKSGEVQIIAPVGFMESVVAENILAGNAMHRRSQYQFGMLLSPSVKGHVDCGIGKAASHGTVTLIAPTIIIEEPVEERTIDGVDFVFQLAPGSEAPSEMLIYMPQQRVLNMAEDVTHHMHNLYALRGVEVRDGNQWAKYIDAARVAFGSKTDVLIAQHHWPTTGQMRINELLKKQRDMYKFIHDQTLRLLNQGYTSRDIAETLRMPSSLEQEWSTRGYYGTLSHNVKAVYQKYLGWYDANPANLNPLPPVAYAKKAVEYMGGADAVLARAYKDFQKGEFRWVASVVNQLVFADPNNHQARELCADALEQLGYQAEASTWRNAYLVGAMELRQGVPKRRSTGKRNNIAVLNNEMFFDFLAVRLNATKAEGKIIVSNWCFINSNERFVITLENCALTYIQGWQTDADATITLKRTTFEALLANEITMVDFLRSKEVEIEGNRLRIEELLKLFDDFDQSFPVVEPMGGST
For B1, in data set [1], the Km is 300 ± 115 µM and the kcat stood at 0.0067 ± 0.0017 s⁻¹.
